Test results reported in patent US7501267B2, “Gene sequence of L-rhamnose isomerase having new catalytic function and use thereof” (Rare Sugar Production Technical Research Laboratories, LLC, priority 2003, dated 2009).
Like-named read-outs stand apart in the source and are kept apart here.

Columns and labels:
[1] = test system: L-rhamnose isomerase produced by Pseudomonas stutzerii LL172; settings: Non-Patent Document 3, cited from earlier work; for Effect of a chelating agent on activity: coexisting during the measurement of activity
[2] = test system: L-rhamnose isomerase produced by Pseudomonas stutzerii LL172; test: Effect of a chelating agent or metal ion on L-rhamnose isomerase activity; type: biochemical; settings: for Effect of a chelating agent on activity: coexisting during the measurement of activity
[3] = cited from earlier work
[4] = substrate: C[C@@H]1OC(O)[C@H](O)[C@H](O)[C@H]1O; test: Km and Vmax of purified L-rhamnose isomerase for a variety of substrates; type: biochemical, Pseudomonas stutzeri; settings: other: purified enzyme without immobilizing; pH 7.0
Procedure: (§1) An enzyme was obtained with the same conditions as those of Example 5. The measurement of Km and Vmax was carried out using the enzyme without immobilizing.
(§2) The cells were washed twice with 0.05 M sodium phosphate buffer (pH 7.0). The washed cells were ground with alumina powder and subjected to centrifugation to remove insoluble substances together with alumina powder, whereby a crude enzyme solution was obtained. The obtained crude enzyme solution was subjected to affinity chromatography using an Ni-NTA column to purify the enzyme, whereby a pure enzyme was obtained. After the enzyme was dialyzed against ultrapure water, lyophilization was carried out, whereby pure powder enzyme was obtained. By allowing 20 mg of the enzyme to be adsorbed on 1 g of Chitopearl resin, immobilized enzyme was prepared.

[5] = substrate: OC[C@H]1OC(O)[C@H](O)[C@H](O)[C@@H]1O; test: as above; type: biochemical, Pseudomonas stutzeri; settings: other: purified enzyme without immobilizing; pH 7.0
Procedure: as §1, §2

[6] = substrate: OC[C@H]1OC(O)[C@@H](O)[C@H](O)[C@@H]1O; test: as above; type: biochemical, Pseudomonas stutzeri; settings: other: purified enzyme without immobilizing; pH 7.0
Procedure: as §1, §2

[7] = substrate: OC[C@@H]1OC(O)[C@H](O)[C@H](O)[C@H]1O; test: as above; type: biochemical, Pseudomonas stutzeri; settings: other: purified enzyme without immobilizing; pH 7.0
Procedure: as §1, §2

[8] = substrate: OC1OC[C@H](O)[C@H](O)[C@H]1O; test: cells, lysate or membranes named; settings: other: purified enzyme without immobilizing; pH 7.0
[9] = substrate: OC1OC[C@@H](O)[C@@H](O)[C@H]1O; test: cells, lysate or membranes named; settings: other: purified enzyme without immobilizing; pH 7.0
[10] = substrate: OC1OC[C@H](O)[C@@H](O)[C@H]1O; test: cells, lysate or membranes named; settings: other: purified enzyme without immobilizing; pH 7.0

In the case of `O=C(O)CN(CCN(CC(=O)O)CC(=O)O)CC(=O)O` [EDTA], the “Effect of a chelating agent on activity” value [1] is given as “hardly inhibited” and the “Effect of a chelating agent on activity” value [2] is given as “hardly inhibited”.

In the case of `O=C(O)CN(CCOCCOCCN(CC(=O)O)CC(=O)O)CC(=O)O` [EGTA], the “Effect of a chelating agent on activity” value [1] is listed as “hardly inhibited” and the “Effect of a chelating agent on activity” value [2] is listed as “hardly inhibited”.

In the case of `[Co+2]` [cobalt ion], the “Activity inhibited by metal ion” value ([1]; 1 mM) is given as “About 30%” and the “Activity inhibited by metal ion” value ([2]; 1 mM) is given as “About 30%”.

B1: L-rhamnose isomerase derived from P. stutzeri (Stutzerimonas stutzeri) (protein)
chain: MAEFRIAQDVVARENDRRASALKEDYEALGANLARRGVDIEAVTAKVEKFFVAVPSWGVGTGGTRFARFPGTGEPRGIFDKLDDCAVIQQLTRATPNVSLHIPWDKADPKELKARGDALGLGFDAMNSNTFSDAPGQAHSYKYGSLSHTDAATRAQAVEHNLECIEIGKAIGSKALTVWIGDGSNFPGQSNFTRAFERYLSAMAEIYKGLPDDWKLFSEHKMYEPAFYSTVVQDWGTNYLIAQTLGPKAQCLVDLGHHAPNTNIEMIVARLIQFGKLGGFHFNDSKYGDDDLDAGAIEPYRLFLVFNELVDAEARGVKGFHPAHMIDQSHNVTDPIESLINSANEIRRAYAQALLVDRAALSGYQEDNDALMATETLKRAYRTDVEPILAEARRRTGGAVDPVATYRASGYRARVAAERPASVAGGGGII
In the case of B1, the “Temperature stability, activity remaining” value ([3]; 10 min) is given as ≥ 90%, the “Optimal pH” value ([3]; Non-Patent Document 3) is given as 9.0 and the Optimal temperature ([3]; Non-Patent Document 3) is given as 60 °C. The “Optimal pH” value was 9.0, the Optimal temperature was 60 °C and the “Temperature stability, activity remaining” value (10 min) was ≥ 90%. It also gave a Km [4] of 11.9 mM, a Vmax [4] of 238 µmol/min/mg and a Km [5] of 42 mM. It also gave a Vmax [5] of 6.76 µmol/min/mg, a Km [6] of 71 mM and a Vmax [6] of 0.01 µmol/min/mg. It also gave a Km [7] of 55.5 mM, a Vmax [7] of 139 µmol/min/mg and a Km [8] of 2.35 mM. The Vmax [8] was 0.061 µmol/min/mg, the Km [9] was 38.5 mM and the Vmax [9] was 21.4 µmol/min/mg. For the same molecule, the Km [10] was 61.7 mM and the Vmax [10] was 123 µmol/min/mg.
